Assay [1] addresses T1, KDM5B-PHD1-Y334A (Homo sapiens, UniProt Q9UGL1, Y334A).
T1 construct: PHDKDM5B (residues 306–360 aa); GST (N, cleaved yes); made in house
Description: ITC binding, PHD1 Y334A mutant. The following applies: Table S1, pH 7.5, 25°C. The method, then: (§1) A similar PHDKDM5B construct was used for the sample required in the NMR experiments. ^13C- and ^15N-labeled PHDKDM5B were prepared in M9 medium. Site-directed mutagenesis was performed using a QuikChange site-directed mutagenesis kit (Stratagene Inc. La Jolla, California, U.S.A). All of the DNA constructs were sequenced, and the molecular weights of the recombinant proteins were verified by mass spectrometry (MALDI).
(§2) To investigate whether the PHD1KDM5B finger and its mutants interact with unmodified or methylated H3K4 or H3K4mutants, the binding affinities of PHD1KDM5B or its mutants to H3 peptides were studied. An ITC-200 microcalorimeter (GE Healthcare) was used with a buffer containing 20 mmol/L Tris, 150 mmol/L NaCl, and 1% Triton X-100, pH 7.5 at 25°C. The reference titration of small molecules in the buffer was subtracted from the experimental data, and the data were fitted using the Origin 7.0 (OriginLab Corporation) software.

Assay [2] deals with T2, KDM5B-PHD1-D332A (Homo sapiens, UniProt Q9UGL1, D332A).
T2 construct: PHDKDM5B (residues 306–360 aa); GST (N, cleaved yes); made in house
Description: ITC binding, PHD1 D332A mutant. Particulars: Table S1, pH 7.5, 25°C. The method, then: as §1, §2

Assay [3] deals with T3, KDM5B-PHD1-L324A (Homo sapiens, UniProt Q9UGL1, L324A).
T3 construct: PHDKDM5B (residues 306–360 aa); GST (N, cleaved yes); made in house
Description: ITC binding, PHD1 L324A mutant. Particulars: Table S1, pH 7.5, 25°C. The protocol: as §1, §2

Another assay deals with T4, KDM5B-PHD1-L325A (Homo sapiens, UniProt Q9UGL1, L325A).
T4 construct: PHDKDM5B (residues 306–360 aa); GST (N, cleaved yes); made in house
T4 sequence (Q9UGL1 306-360 L325A): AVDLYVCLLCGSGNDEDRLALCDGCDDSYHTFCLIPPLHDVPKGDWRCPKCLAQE
Description: ITC binding, PHD1 L325A mutant. The method, then: as §1, §2

Assay [4] addresses T5, KDM5B-PHD1-D322A (Homo sapiens, UniProt Q9UGL1, D322A).
T5 construct: PHDKDM5B (residues 306–360 aa); GST (N, cleaved yes); made in house
Description: ITC binding, PHD1 D322A mutant. The following applies: Table S1, pH 7.5, 25°C. The method, then: as §1, §2

Assay [5] deals with T6, KDM5B-PHD1-S333A (Homo sapiens, UniProt Q9UGL1, S333A).
T6 construct: PHDKDM5B (residues 306–360 aa); GST (N, cleaved yes); made in house
Description: ITC binding, PHD1 S333A mutant. Particulars: Table S1, pH 7.5, 25°C. The protocol:
as §1, §2

The target of assay [6] is T7, KDM5B-PHD1-V311A (Homo sapiens, UniProt Q9UGL1, V311A).
T7 construct: PHDKDM5B (residues 306–360 aa); GST (N, cleaved yes); made in house
Description: ITC binding, PHD1 V311A mutant. Particulars: Table S1, pH 7.5, 25°C. The method, then:
as §1, §2

Assay [7] has as its target T8, KDM5B-PHD1-L309A (Homo sapiens, UniProt Q9UGL1, L309A).
T8 construct: PHDKDM5B (residues 306–360 aa); GST (N, cleaved yes); made in house
Description: ITC binding, PHD1 L309A mutant. The following applies: Table S1, pH 7.5, 25°C. The method, then:
as §1, §2

Assay [8] addresses T9, KDM5B-PHD1-D345A (Homo sapiens, UniProt Q9UGL1, D345A).
T9 construct: PHDKDM5B (residues 306–360 aa); GST (N, cleaved yes); made in house
Description: ITC binding, PHD1 D345A mutant. Particulars: Table S1, pH 7.5, 25°C. The protocol:
as §1, §2

In another assay the target is T10, KDM5B-PHD1-W351A (Homo sapiens, UniProt Q9UGL1, W351A).
T10 construct: PHDKDM5B (residues 306–360 aa); GST (N, cleaved yes); made in house
T10 sequence (Q9UGL1 306-360 W351A): as the sequence (Q9UGL1 306-360 L325A) above, with A20L, W46A counted along it
Description: ITC binding, PHD1 W351A mutant. The protocol:
as §1, §2

Assay [9] deals with T11, KDM5B-PHD1-V311A (Homo sapiens).
T11 chain: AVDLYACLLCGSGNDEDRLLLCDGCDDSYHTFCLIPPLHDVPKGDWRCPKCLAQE
Description: ITC. A general note: Isothermal titration calorimetry measures the heat released or taken up as one component is titrated into another.

Assay [10] deals with T12, KDM5B-PHD1-L309A (Homo sapiens).
T12 chain: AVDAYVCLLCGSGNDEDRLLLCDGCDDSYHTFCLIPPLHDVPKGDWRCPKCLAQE
Description: ITC.

Assay [11] has as its target T13, KDM5B-PHD1-Y334A (Homo sapiens).
T13 chain: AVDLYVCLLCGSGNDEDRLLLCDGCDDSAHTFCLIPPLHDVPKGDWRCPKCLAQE
Description: ITC.

Assay [12] concerns the target T14, KDM5B-PHD1-L324A (Homo sapiens).
T14 chain: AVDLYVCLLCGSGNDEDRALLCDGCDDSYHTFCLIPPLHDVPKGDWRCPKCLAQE
Description: ITC.

Assay [13] concerns the target T15, KDM5B-PHD1-S333A (Homo sapiens).
T15 chain: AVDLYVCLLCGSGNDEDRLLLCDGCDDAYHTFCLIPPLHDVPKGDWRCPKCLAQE
Description: ITC.

Assay [14] deals with T16, KDM5B-PHD1-D332A (Homo sapiens).
T16 chain: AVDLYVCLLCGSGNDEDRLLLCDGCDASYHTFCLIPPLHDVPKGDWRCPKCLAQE
Description: ITC.

The target of assay [15] is T17, KDM5B-PHD1-D345A (Homo sapiens).
T17 chain: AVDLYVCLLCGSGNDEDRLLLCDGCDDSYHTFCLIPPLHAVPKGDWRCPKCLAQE
Description: ITC.

The target in assay [16] is T18, KDM5B-PHD1-D322A (Homo sapiens).
T18 chain: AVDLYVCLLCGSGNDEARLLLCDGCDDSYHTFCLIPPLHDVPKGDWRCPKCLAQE
Description: ITC.

Assay [17] addresses T19, PHD1_(KDM5B) D308A mutant (UniProt Q9UGL1 306-360, D308A).
T19 construct: also called PHD1 D308A; source: recombinant from modified pGEX-6p-1, site-directed mutagenesis; not shown: GST, N-terminal, cleaved
T19 sequence (looked up): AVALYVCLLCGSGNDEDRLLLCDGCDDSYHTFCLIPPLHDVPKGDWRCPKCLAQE
Description: ITC; ITC-200, 20 mmol/L Tris, 150 mmol/L NaCl, 1% Triton X-100, pH 7.5, 25°C. The following applies: both partners purified.

Assay [18] has as its target T20, PHD1 finger of KDM5B (residues 306-360) (UniProt Q9UGL1 306-360).
T20 construct: 15N- or 13C/15N-labelled (M9 medium) for the NMR experiments; GST removed with 3C protease; also called PHD1_(KDM5B); PHD_(KDM5B); source: recombinant from modified pGEX-6p-1, purified; preparation described in Guo et al., 2011; not shown: GST, N-terminal, cleaved
T20 sequence (looked up): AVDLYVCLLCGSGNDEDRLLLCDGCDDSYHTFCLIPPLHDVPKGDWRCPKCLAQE
The assay is described as above. The following applies: both partners purified.

The target in assay [19] is T21, PHD1_(KDM5B) L326A mutant (UniProt Q9UGL1 306-360, L326A).
T21 construct: also called PHD1 L326A; source: recombinant from modified pGEX-6p-1, site-directed mutagenesis; not shown: GST, N-terminal, cleaved
T21 sequence (looked up): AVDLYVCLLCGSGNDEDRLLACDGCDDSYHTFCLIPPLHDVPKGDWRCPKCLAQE
The assay is described as above. The following applies: both partners purified.

Assay [20] concerns the target T22, PHD1_(KDM5B) E321A mutant (UniProt Q9UGL1 306-360, E321A).
T22 construct: also called PHD1 E321A; source: recombinant from modified pGEX-6p-1, site-directed mutagenesis; not shown: GST, N-terminal, cleaved
T22 sequence (looked up): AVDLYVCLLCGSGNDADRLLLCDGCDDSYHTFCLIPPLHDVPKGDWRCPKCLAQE
The assay is described as above. The following applies: both partners purified.

The target in assay [21] is T23, PHD1_(KDM5B) Y310A mutant (UniProt Q9UGL1 306-360, Y310A).
T23 construct: also called PHD1 Y310A; source: recombinant from modified pGEX-6p-1, site-directed mutagenesis; not shown: GST, N-terminal, cleaved
T23 sequence (looked up): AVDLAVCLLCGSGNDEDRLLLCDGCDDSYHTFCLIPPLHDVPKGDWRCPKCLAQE
Described as above. Particulars: both partners purified.

The target of assay [22] is T24, PHD1_(KDM5B) D328A mutant (UniProt Q9UGL1 306-360, D328A).
T24 construct: also called PHD1 D328A; source: recombinant from modified pGEX-6p-1, site-directed mutagenesis; not shown: GST, N-terminal, cleaved
T24 sequence (looked up): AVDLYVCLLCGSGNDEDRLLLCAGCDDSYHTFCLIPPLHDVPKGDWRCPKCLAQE
The assay is described as above. The following applies: both partners purified.

Assay [23] addresses T25, PHD1_(KDM5B) Y310F mutant (UniProt Q9UGL1 306-360, Y310F).
T25 construct: also called PHD1 Y310F; source: recombinant from modified pGEX-6p-1, site-directed mutagenesis; not shown: GST, N-terminal, cleaved
T25 sequence (looked up): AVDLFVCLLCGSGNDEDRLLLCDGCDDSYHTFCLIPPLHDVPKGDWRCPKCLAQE
Described as above. The following applies: both partners purified.

Usually Kd stands for the concentration at which binding is half-saturated. Regarding `C[C@H](N)C(=O)N[C@@H](CCCNC(=N)N)C(=O)N[C@H](C(=O)N[C@@H](CCCCN)C(=O)N[C@@H](CCC(N)=O)C(=O)N[C@H](C(=O)N[C@@H](C)C(=O)N[C@@H](CCCNC(=N)N)C(=O)N[C@@H](CCCCN)C(=O)N[C@@H](CO)C(=O)O)[C@@H](C)O)[C@@H](C)O` [H3K4me0], the equilibrium dissociation constant (Kd) came to 12.6 ± 0.4 µM on KDM5B-PHD1-Y334A [1]; 11.3 ± 0.5 µM at KDM5B-PHD1-D332A [2]; 15.3 ± 0.7 µM on KDM5B-PHD1-L324A [3]; 10.7 ± 0.5 µM at KDM5B-PHD1-D322A [4]; 12.9 ± 0.5 µM on KDM5B-PHD1-S333A [5]; 8.2 ± 0.3 µM at KDM5B-PHD1-V311A [6]. Also, the Kd on KDM5B-PHD1-L309A [7] worked out at 8.3 ± 0.5 µM; on KDM5B-PHD1-D345A [8], 6.7 ± 0.3 µM. Further, the binding affinity entry on KDM5B-PHD1-L325A and on KDM5B-PHD1-W351A was “non-detectable” each time.

B1: unmodified H3K4 peptide (residues 1-10) (peptide)
peptide: ARTKQTARKS
notes: histone H3 N-terminal tail, residues 1-10; also called H3K4me0; H3K4me0 peptide; source: synthetic peptide, bought: GL Biochem Ltd. (Shanghai, China)
B1: the Kd with KDM5B-PHD1-V311A [9] turned out to be 8.2 µM; with KDM5B-PHD1-L309A [10], 8.3 µM; with KDM5B-PHD1-Y334A [11], 12.6 µM; in the assay with KDM5B-PHD1-L324A [12], 15.3 µM; with KDM5B-PHD1-S333A [13], 12.9 µM; in the assay with KDM5B-PHD1-D332A [14], 11.3 µM. Moreover, the equilibrium dissociation constant (Kd) with KDM5B-PHD1-D345A [15] amounted to 6.7 µM; with KDM5B-PHD1-D322A [16], 10.7 µM; in [17] it was 41.7 ± 2.2 µM; in assay [18], 6.4 µM; in [19] it was 14.1 ± 0.8 µM; in [20], 75.8 ± 5.7 µM. The values for the Kd in [21], in assay [22] and in assay [23] were 28.1 ± 1.3 µM, 182 ± 21.9 µM and 4.3 ± 0.2 µM, respectively.

These data come from PMC4225485, “The PHD1 finger of KDM5B recognizes unmodified H3K4 during the demethylation of histone H3K4me2/3 by KDM5B” (Protein & Cell, 2014).
